Series [1] concerns the molecule itself. In words: static light scattering + SEC.
Series [2] concerns the molecule itself. The series can be described thus: […], sodium citrate 20 mM pH 4.0, […].

Several values for one entry are separate records, joined by “and”; a condition that tells them apart may be missing. Equal entries are not always repeated.

B1: Full-length Ovine PrP 23-234 (Ala-136, Arg-154, Gln-171 variant) (natural protein)
chain: not shown
notes: also called OvPrP; ARQ PrP
With B1, the koff in series [1] is 0.00403 s⁻¹ and 0.0038 s⁻¹ and 0.01 s⁻¹. Further, in series [2], the “stoichiometry N” value lay in the range of 25 to 70 mer.

Usually koff stands for the rate constant with which the complex falls apart. The term stoichiometry N denotes the number of molecules, sites or subunits per partner or assembly.

The values are drawn from publication PMC5528842, “The mechanism of monomer transfer between two structurally distinct PrP oligomers” (PLoS ONE, 2017).
